In the supplement of paper PMC7877785:
± gives the uncertainty stated by the source.

Test: self-splicing fitness, log relative to wild type (ln ratio); higher = more splicing; Tetrahymena group I intron in knt gene, E. coli kanamycin selection, DiMSum; sequences stand for … in CUCUCU…GGAGGGAAAAGUUAUCAGGCAUGCACCUGGUAGCUAGUCUUUAAACCAAUAGAUUGCAUCGGUUUAAAAGGCAAGACCGUCAAAUUGCGGGAAAGGGGUCAACAGCCGUUCAGUACCAAGUCUCAGGGGAAACUUUGAGAUGGCCUUGCAAAGGGUAUGGUAAUAAGCUGACGGACAUGGUCCUAACCACGCAGCCAAGUCCUAAGUCAACAGAUCUUCUGUUGAUAUGGAUGCAGUUCACAGACUAAAUGUCGGUCGGGGAAGAUGUAUUCUUCUCAUAAGAUAUAGUCGGACCUCUCCUUAAUGGGAGCUAGCGGAUGAAGUGAUGCAACACUGGAGCCGCUGGGAACUAAUUUGUAUGCGAAAGUAUAUUGAUUAGUUUUGGAGUACUCGUGGUCG
Outline: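 Fitness was computed with DiMSum as the error-weighted combination of replicate fold changes, kanamycin versus none, each normalised to wild type. The library randomised all eight intron nucleotides of the P1ex region, with the intron placed in the knt kanamycin-resistance gene on pET-22b(+) in E. coli BL21(DE3). Six replicate transformations were grown overnight at 37°C or 30°C on LB agar with or without 25 μg/mL kanamycin, plus 100 μg/mL carbenicillin, 50 μM IPTG and 0.2% rhamnose. Pooled colonies were amplicon-sequenced on an Illumina HiSeq 2500.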

Sequence	self-splicing fitness (ln) (30 °C)	self-splicing fitness (ln) (37 °C)
GCUAAGCAAUAUUACGAUUG	-2.78 ± 0.11	-1.17 ± 0.12
GCUAAGCAAUAUUACGCCUA	-1.55 ± 0.3	-0.198 ± 0.2
GCUAAGCAAUAUUACGCGAG	-2.6 ± 0.13	-1.18 ± 0.14
GCUAAGCAAUAUUACGCUCG	-0.473 ± 0.094	-0.832 ± 0.13
GCUAAGCAAUAUUACGCUCU	-1.11 ± 0.13	0.486 ± 0.15
GCUAAGCAAUAUUACGCUUA	-1.74 ± 0.26	-3.17 ± 0.43
GCUAAGCAAUAUUACGGACU	-1.66 ± 0.12	-0.74 ± 0.14
GCUAAGCAAUAUUACGGAGC	–	-2.4 ± 0.34
GCUAAGCAAUAUUACGUAGC	-4.22 ± 0.26	-2.16 ± 0.18
GCUAAGCAAUAUUACGUAUG	-2.2 ± 0.1	-1.12 ± 0.14
GCUAAGCAAUAUUACGUGUC	-2.75 ± 0.13	-2.22 ± 0.14
GCUAAGCAAUAUUACGUUAU	-1.7 ± 0.072	-1.48 ± 0.12
GCUAAGCAAUAUUACGUUCU	-1.04 ± 0.052	-0.467 ± 0.066
GCUCAGCAAUAUUACGAAAG	-1.71 ± 0.11	-1.93 ± 0.13
GCUCAGCAAUAUUACGACCA	-0.232 ± 0.18	-0.532 ± 0.15
GCUCAGCAAUAUUACGACCC	-0.644 ± 0.14	0.378 ± 0.19
GCUCAGCAAUAUUACGAGAA	-0.468 ± 0.12	0.0758 ± 0.099
GCUCAGCAAUAUUACGAUGC	-1.47 ± 0.12	-0.954 ± 0.15
GCUCAGCAAUAUUACGAUUC	-0.0882 ± 0.054	0.832 ± 0.075
GCUCAGCAAUAUUACGCAAC	-1.28 ± 0.16	-1.07 ± 0.2
GCUCAGCAAUAUUACGCAUU	-0.452 ± 0.078	-0.0385 ± 0.1
GCUCAGCAAUAUUACGCCCC	0.441 ± 0.32	-0.222 ± 0.41
GCUCAGCAAUAUUACGCCUA	-0.718 ± 0.23	-0.514 ± 0.22
GCUCAGCAAUAUUACGCGCU	-1.42 ± 0.11	-0.545 ± 0.14
GCUCAGCAAUAUUACGGAAU	-0.424 ± 0.083	0.224 ± 0.12

Sequence	self-splicing fitness (ln) (30 °C)	self-splicing fitness (ln) (37 °C)
GCUCAGCAAUAUUACGGCAC	-1.11 ± 0.21	-0.084 ± 0.21
GCUCAGCAAUAUUACGGCUG	-2.99 ± 0.29	-2.1 ± 0.34
GCUCAGCAAUAUUACGGUCG	-2.35 ± 0.14	-0.924 ± 0.14
GCUCAGCAAUAUUACGUAAU	-0.739 ± 0.072	0.436 ± 0.092
GCUCAGCAAUAUUACGUACA	-2.16 ± 0.12	-0.932 ± 0.14
GCUCAGCAAUAUUACGUACC	0.00766 ± 0.067	0.487 ± 0.1
GCUCAGCAAUAUUACGUACG	-1.72 ± 0.11	-0.485 ± 0.09
GCUCAGCAAUAUUACGUCAA	-1.84 ± 0.16	-1.77 ± 0.22
GCUCAGCAAUAUUACGUCAU	-2.27 ± 0.06	-1.26 ± 0.074
GCUCAGCAAUAUUACGUCUU	-0.48 ± 0.054	-0.252 ± 0.066
GCUGAGCAAUAUUACGACAG	-1.05 ± 0.31	–
GCUGAGCAAUAUUACGAGCU	-3.66 ± 0.34	-1.82 ± 0.22
GCUGAGCAAUAUUACGAUAU	-2.62 ± 0.28	-1.08 ± 0.2
GCUGAGCAAUAUUACGAUGA	-1.11 ± 0.13	-1.07 ± 0.15
GCUGAGCAAUAUUACGCAAG	-3.22 ± 0.3	-2.73 ± 0.44
GCUGAGCAAUAUUACGCCGC	-2.62 ± 0.34	–
GCUGAGCAAUAUUACGCGAA	–	-2.91 ± 0.37
GCUGAGCAAUAUUACGCGAC	-3.36 ± 0.32	-1 ± 0.3
GCUGAGCAAUAUUACGCGCA	-1.72 ± 0.4	–
GCUGAGCAAUAUUACGCGUU	-2.22 ± 0.15	-1.73 ± 0.22
GCUGAGCAAUAUUACGGCGA	-1.43 ± 0.16	-1.56 ± 0.2
GCUGAGCAAUAUUACGGGAC	-1.25 ± 0.13	-2.16 ± 0.22
GCUGAGCAAUAUUACGGUGC	-3.9 ± 0.3	-1.61 ± 0.22
GCUGAGCAAUAUUACGGUGU	-2.14 ± 0.077	-1.8 ± 0.091
GCUGAGCAAUAUUACGUAAA	-2.97 ± 0.19	-2.31 ± 0.17

Sequence	self-splicing fitness (ln) (30 °C)	self-splicing fitness (ln) (37 °C)
GCUGAGCAAUAUUACGUAAG	-1.55 ± 0.12	-0.739 ± 0.16
GCUGAGCAAUAUUACGUAGA	-2.41 ± 0.2	-0.888 ± 0.21
GCUGAGCAAUAUUACGUAUU	-4.1 ± 0.28	-2.3 ± 0.22
GCUGAGCAAUAUUACGUCCC	-0.877 ± 0.092	-0.184 ± 0.11
GCUGAGCAAUAUUACGUCCG	-2.38 ± 0.23	-2.3 ± 0.31
GCUGAGCAAUAUUACGUGUC	-2.78 ± 0.18	-1.3 ± 0.16
GCUGAGCAAUAUUACGUUGG	-2.52 ± 0.26	-1.9 ± 0.28
GCUGAGCAAUAUUACGUUUC	-1.94 ± 0.18	-1.55 ± 0.2
GCUUAGCAAUAUUACGAAGC	-4.18 ± 0.31	-4.66 ± 0.36
GCUUAGCAAUAUUACGAGAG	-1.52 ± 0.23	-0.67 ± 0.2
GCUUAGCAAUAUUACGAGCG	-2.44 ± 0.26	-1.1 ± 0.16
GCUUAGCAAUAUUACGAUAC	-1.65 ± 0.2	0.185 ± 0.23
GCUUAGCAAUAUUACGAUGU	-0.306 ± 0.083	-0.00189 ± 0.11
GCUUAGCAAUAUUACGCAAG	–	-2.44 ± 0.34
GCUUAGCAAUAUUACGCACG	-2.19 ± 0.092	-0.388 ± 0.1
GCUUAGCAAUAUUACGCCAC	-1.67 ± 0.32	-1.17 ± 0.45
GCUUAGCAAUAUUACGCUCU	-0.864 ± 0.12	-0.504 ± 0.12
GCUUAGCAAUAUUACGGACU	-0.304 ± 0.085	0.4 ± 0.093
GCUUAGCAAUAUUACGGCUA	-0.299 ± 0.24	-1.61 ± 0.27
GCUUAGCAAUAUUACGGGGA	-1.05 ± 0.11	-0.712 ± 0.12
GCUUAGCAAUAUUACGGUAC	-1.91 ± 0.14	-0.938 ± 0.19
GCUUAGCAAUAUUACGGUCC	-0.86 ± 0.17	0.242 ± 0.25
GCUUAGCAAUAUUACGUACU	-0.712 ± 0.1	-0.0558 ± 0.13
GCUUAGCAAUAUUACGUAGA	-0.53 ± 0.076	0.396 ± 0.093
GCUUAGCAAUAUUACGUAGG	-1.51 ± 0.11	-0.916 ± 0.14

Sequence	self-splicing fitness (ln) (30 °C)	self-splicing fitness (ln) (37 °C)
GCUUAGCAAUAUUACGUAUA	-1.24 ± 0.072	-1.15 ± 0.094
GCUUAGCAAUAUUACGUAUU	-0.48 ± 0.12	0.669 ± 0.15
GCUUAGCAAUAUUACGUCGG	-1.89 ± 0.13	-1.75 ± 0.18
GCUUAGCAAUAUUACGUGCA	-1.11 ± 0.11	-0.319 ± 0.13
GCUUAGCAAUAUUACGUGGA	-2.06 ± 0.13	-0.531 ± 0.11
GCUUAGCAAUAUUACGUUCU	-1.03 ± 0.095	0.0827 ± 0.1
GCUUAGCAAUAUUACGUUUU	-1.68 ± 0.068	-0.474 ± 0.075
GGAAAGCAAUAUUACGAACU	-0.854 ± 0.1	0.214 ± 0.12
GGAAAGCAAUAUUACGAAUU	-1.96 ± 0.16	-1.4 ± 0.12
GGAAAGCAAUAUUACGACAG	-2.98 ± 0.14	-2.17 ± 0.22
GGAAAGCAAUAUUACGAGCA	-1.01 ± 0.078	-0.54 ± 0.083
GGAAAGCAAUAUUACGAGCC	-1.45 ± 0.12	-0.842 ± 0.17
GGAAAGCAAUAUUACGAUAU	-0.885 ± 0.076	-0.58 ± 0.1
GGAAAGCAAUAUUACGCCAC	-2.68 ± 0.33	–
GGAAAGCAAUAUUACGCCUG	-1.73 ± 0.34	–
GGAAAGCAAUAUUACGCGCU	-3.27 ± 0.38	-1.37 ± 0.26
GGAAAGCAAUAUUACGCUAA	-0.882 ± 0.25	-1.08 ± 0.27
GGAAAGCAAUAUUACGGACC	-2.35 ± 0.36	-1.44 ± 0.41
GGAAAGCAAUAUUACGGACU	-1.51 ± 0.27	-0.961 ± 0.28
GGAAAGCAAUAUUACGGAGA	-1.97 ± 0.27	-2.54 ± 0.26
GGAAAGCAAUAUUACGGCUC	-0.254 ± 0.13	0.018 ± 0.16
GGAAAGCAAUAUUACGGGUG	-1.91 ± 0.14	-1.78 ± 0.15
